What was measured:
Format in all cases: in vivo
[1] = system: Arabidopsis thaliana T1 plants; experiment: Topramezone tolerance of transgenic Arabidopsis thaliana T1 plants (spray, bleached leaf area grade, damage score); settings: 7 DAT, Table 4; for Classification and statistics of the grade of pesticide damage: Grade 0 / Classification and statistics of the grade of pesticide damage: Grade 1 / Classification and statistics of the grade of pesticide damage: Grade 2 / Classification and statistics of the grade of pesticide damage: Grade 3: number of plants; for Scores: pesticide damage score 0-100
How it was run: (§1)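 Read-out: per-plant damage grade 0–3 from proportion of bleached leaf area at 7 DAT (1 <50%, 2 >50%, 3 100%). Plants were T1 transformants, glufosinate-selected, plus wild-type CK, sprayed 18 days post-sowing. Rates: topramezone 25–200, isoxaflutole 35–280, mesotrione 52.5–420 g ai/ha.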

[2] = system: Arabidopsis thaliana T1 plants; experiment: Isoxaflutole tolerance of transgenic Arabidopsis thaliana T1 plants (spray, bleached leaf area grade, damage score); set-up: Scores (pesticide damage): scale not given here; settings: spray, Arabidopsis thaliana T1 plants; for Classification and statistics of the grade of pesticide damage: Grade 0 (number of plants) / Classification and statistics of the grade of pesticide damage: Grade 1 (number of plants) / Classification and statistics of the grade of pesticide damage: Grade 2 (number of plants) / Classification and statistics of the grade of pesticide damage: Grade 3 (number of plants): 16 plants
How it was run: as §1

[3] = system: Arabidopsis thaliana T1 plants; experiment: Mesotrione tolerance of transgenic Arabidopsis thaliana T1 plants (spray, bleached leaf area grade, damage score); set-up: Scores: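 damage score 0-100 computed as Σ(N×S)/(T×M)×100 over grades 0-3 with higher meaning more damage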; settings: Arabidopsis thaliana T1 plants; for Grade 0 (classification and statistics of the grade of pesticide damage; number of plants) / Grade 1 (classification and statistics of the grade of pesticide damage; number of plants) / Grade 2 (classification and statistics of the grade of pesticide damage; number of plants) / Grade 3 (classification and statistics of the grade of pesticide damage; number of plants): 16 plants
How it was run: as §1

soybean T1 plants [4] = experiment: Topramezone tolerance of transgenic soybean T1 plants; settings: different concentrations
Protocol: T1 transformants were initially selected from the untransformed seeds using a glufosinate selection scheme. […] The degree of damage caused by the herbicide was measured for each plant according to the proportion of bleached leaf area (the proportion of bleached leaf area=bleached leaf area/total leaf area×100%) 7 days after spraying (7 DAT): the case where there is basically no bleached phenotype is defined as grade 0, the case where the proportion of bleached leaf area is less than 50% is defined as grade 1, the case where the proportion of bleached leaf area is more than 50% is defined as grade 2, and the case where the proportion of bleached leaf area is 100% grade is defined as grade 3.
The soybean T1 plants into which the SbHPPD-02 nucleotide sequence was introduced, soybean T1 plants into which the SbHPPDm-F372A-02 nucleotide sequence was introduced, soybean T1 plants into which the SbHPPDm-F383W-02 nucleotide sequence was introduced, soybean T1 plants into which the SbHPPDm-F372A-F383W-02 nucleotide sequence was introduced, soybean T1 plants into which the control vector DBN11726N nucleotide sequence was introduced, and wild-type soybean plants (V3-V4 at seedling stage) were sprayed with topramezone at three different concentrations (i.e., 25 g ai/ha (one-fold field concentration, 1×). […] According to the method in point 6 of Example 1, after 7 days of spraying (7 DAT), the damage degree of each plant by the herbicide was statistically analyzed, and the scoring and resistance evaluation were carried out accordingly. […]

soybean T1 plants [5] = experiment: Isoxaflutole tolerance of transgenic soybean T1 plants; settings: different concentrations
soybean T1 plants [6] = experiment: Mesotrione tolerance of transgenic soybean T1 plants; settings: different concentrations
[7] = isoxaflutole 35 g ai/ha (0.5x field concentration)
[8] = isoxaflutole 70 g ai/ha (1x field concentration)

B1: SbHPPDm-F383W-02: nucleotide sequence encoding Sorghum bicolor HPPD with F383W; vector DBN11760 (nucleic acid)
DNA: ATGCCGCCCACTCCAACAACTGCTGCTGCGACGGGAGCAGCTGTCGCCGCTGCTTCTGCTGAGCAGGCTGCCTTCAGGCTCGTCGGGCACAGAAATTTTGTTCGTGTAAATCCAAGGAGTGATAGGTTCCACACCTTGGCTTTTCACCACGTGGAGTTGTGGTGTGCTGATGCAGCCTCGGCAGCGGGGCGCTTCTCGTTTGGTCTCGGTGCTCCGCTCGCCGCAAGATCTGATCTTAGCACTGGAAACACAGCGCATGCCTCCCTGCTCCTGCGCTCTGGCGCGCTGGCGTTCCTCTTCACGGCGCCATATGCTCACGGCGCCGACGCCGCCACCGCGTCATTGCCGTCTTTTAGTGCAGCCGAAGCAAGAAGATTTGCAGCAGACCACGGCCTCGCCGTAAGGGCCGTGGCCTTACGTGTCGCCGATGCCGAAGATGCTTTCCGCGCCTCTGTAGCAGCTGGAGCAAGGCCAGCATTTGAACCTGTTGAATTGGGGTTAGGATTCCGTCTTGCAGAAGTTGAGCTTTATGGCGACGTTGTTTTGAGATACGTTTCATATCCTGATGACGCTGACGCTAGCTTCTTGCCTGGTTTTGTGGGGGTGACATCACCTGGGGCAGCAGATTATGGTCTCAGGCGGTTTGATCATATTGTTGGAAACGTTCCTGAACTCGCGCCGGCGGCAGCCTACTTCGCCGGTTTCACTGGGTTTCATGAATTTGCTGAATTCACAGCCGAGGATGTCGGCACCACCGAGAGTGGACTGAACTCCATGGTGCTGGCCAACAATGCAGAGAATGTCCTTCTTCCCTTGAATGAACCAGTTCATGGAACAAAAAGGCGTTCCCAAATACAAACATACCTCGACCATCATGGTGGACCAGGCGTTCAGCATATGGCTCTCGCTAGTGACGATGTTCTACGAACCCTGCGAGAGATGCAGGCGCGGTCTGCAATGGGAGGATTTGAGTTCATGGCACCTCCTGCCCCTGAATATTATGATGGTGTTCGGAGAAGGGCAGGTGATGTGCTAACTGAAGCTCAAATCAAGGAGTGCCAGGAGCTTGGCGTGCTGGTCGATCGGGATGATCAAGGTGTGCTTCTGCAGATTTTTACTAAACCAGTGGGTGACCGCCCCACGCTGTGGCTAGAGATCATCCAGAGAATAGGGTGCATGGAGAAGGACGAAAAAGGACAAGAGTACCAGAAGGGAGGTTGTGGCGGCTTTGGAAAAGGGAACTTCTCCCAATTATTCAAGTCAATTGAAGACTATGAAAAGAGTTTGGAGGCTAAGCAAGCTGCAGCCGCCCAGGGCAGCTGA
modifications: SbHPPDm-F383W-02 Nucleotide Sequence
notes: vector DBN11760
Classification and statistics of the grade of pesticide damage: Grade 0 ([1]; topramezone 25 g ai/ha (1×)): 7 | Classification and statistics of the grade of pesticide damage: Grade 1 ([1]; topramezone 25 g ai/ha (1×)): 6 | Classification and statistics of the grade of pesticide damage: Grade 2 ([1]; topramezone 25 g ai/ha (1×)): 3 | Classification and statistics of the grade of pesticide damage: Grade 3 ([1]; topramezone 25 g ai/ha (1×)): 0 | Classification and statistics of the grade of pesticide damage: Grade 0 ([1]; topramezone 100 g ai/ha (4×)): 0 | Classification and statistics of the grade of pesticide damage: Grade 1 ([1]; topramezone 100 g ai/ha (4×)): 0 | Classification and statistics of the grade of pesticide damage: Grade 2 ([1]; topramezone 100 g ai/ha (4×)): 0 | Classification and statistics of the grade of pesticide damage: Grade 3 ([1]; topramezone 100 g ai/ha (4×)): 16 | Scores ([1]; topramezone 25 g ai/ha (1×)): 25 | Scores ([1]; topramezone 100 g ai/ha (4×)): 100 | Resistance evaluation ([1]; topramezone 25 g ai/ha (1×)): moderately | Resistance evaluation ([1]; topramezone 100 g ai/ha (4×)): non-resistant (non-resistant plants (scores 68-100)) | Resistance evaluation [2, 7]: Poorly | Scores (pesticide damage) [2, 7]: 65 | Classification and statistics of the grade of pesticide damage: Grade 0 (number of plants) [2, 7]: 0 | Classification and statistics of the grade of pesticide damage: Grade 1 (number of plants) [2, 7]: 1 | Classification and statistics of the grade of pesticide damage: Grade 2 (number of plants) [2, 7]: 15 | Classification and statistics of the grade of pesticide damage: Grade 3 (number of plants) [2, 7]: 0 | Resistance evaluation [2, 8]: Non-resistant | Scores (pesticide damage) [2, 8]: 100 | Classification and statistics of the grade of pesticide damage: Grade 0 (number of plants) [2, 8]: 0 | Classification and statistics of the grade of pesticide damage: Grade 1 (number of plants) [2, 8]: 0 | Classification and statistics of the grade of pesticide damage: Grade 2 (number of plants) [2, 8]: 0 | Classification and statistics of the grade of pesticide damage: Grade 3 (number of plants) [2, 8]: 16 | Resistance evaluation ([3]; mesotrione 52.5 g ai/ha): Non-resistant | Scores ([3]; mesotrione 52.5 g ai/ha): 69 | Grade 0 (classification and statistics of the grade of pesticide damage; number of plants) ([3]; mesotrione 52.5 g ai/ha): 0 | Grade 1 (classification and statistics of the grade of pesticide damage; number of plants) ([3]; mesotrione 52.5 g ai/ha): 5 | Grade 2 (classification and statistics of the grade of pesticide damage; number of plants) ([3]; mesotrione 52.5 g ai/ha): 5 | Grade 3 (classification and statistics of the grade of pesticide damage; number of plants) ([3]; mesotrione 52.5 g ai/ha): 6 | Resistance evaluation ([3]; mesotrione 105 g ai/ha): Non-resistant | Scores ([3]; mesotrione 105 g ai/ha): 100 | Grade 0 (classification and statistics of the grade of pesticide damage; number of plants) ([3]; mesotrione 105 g ai/ha): 0 | Grade 1 (classification and statistics of the grade of pesticide damage; number of plants) ([3]; mesotrione 105 g ai/ha): 0 | Grade 2 (classification and statistics of the grade of pesticide damage; number of plants) ([3]; mesotrione 105 g ai/ha): 0 | Grade 3 (classification and statistics of the grade of pesticide damage; number of plants) ([3]; mesotrione 105 g ai/ha): 16 | tolerance to HPPD-inhibitor herbicides (in words): topramezone (soybean T1 plants [4]): different degrees of tolerance | tolerance to HPPD-inhibitor herbicides (in words): isoxaflutole (soybean T1 plants [5]): different degrees of tolerance | tolerance to HPPD-inhibitor herbicides (in words): mesotrione (soybean T1 plants [6]): different degrees of tolerance

— patent US20250043302A1, “MUTATED HYDROXYPHENYLPYRUVATE DIOXYGENASE POLYPEPTIDE, AND CODING GENE AND USE THEREOF” (BEIJING DABEINONG BIOTECHNOLOGY CO., LTD., priority 2021, published 2025)
